This is an account of results in article PMC11190147, “Structures of the Staphylococcus aureus ribosome inhibited by fusidic acid and fusidic acid cyclopentane” (Scientific Reports, 2024).

For experiment [1], the target named is Staphylococcus aureus 70S ribosome (S. aureus NCTC 8325-4 (endogenous)) (UniProt Q2FW21). Description: cryo-EM structure; FA-CP complex: as the FA complex but with 5 uM E. coli tRNAfMet and 400 uM FA-CP instead of FA; CHI state 2.0 Å, POST state 2.4 Å.
The target is the same in experiment [2]. Description: cryo-EM structure; FA complex: 0.5 uM S. aureus 70S, 2 uM mRNA Z4AUGGCA, 2 uM E. coli tRNAfMet, 5 uM S. aureus EF-G, 400 uM FA, 1 mM GTP in HEPES polymix buffer (20 mM HEPES pH 7.5, 5 mM BME), 10 min steps at 37 °C; 1 ul of 25 uM FusB with 400 uM FA mixed into the drop on the grid; CHI state 2.5 Å (modelled), POST state 3.1 Å (not modelled).
In experiment [3] the target is T1, Staphylococcus aureus elongation factor G (Staphylococcus aureus, UniProt P68790 1-693).
T1 construct: Ser-Leu that remains at the N-terminus after TEV cleavage of the 6xHis tag and linker; In the complexes EF-G carries GDP, magnesium and FA or FA-CP; also called EF-G; S. aureus EF-G; source: E. coli BL21 (DE3), purified (Ni Sepharose, TEV cleavage, reverse IMAC, Superdex-200 gel filtration); not shown: 6xHis, N-terminal, cleaved
Described as above. The conditions noted are these: both partners purified.

Consider “Staphylococcus aureus elongation factor G (from UniProt P68790 1-693) (natural protein)”, for which, in experiment [1], the percent of 70S particles that contain EF-G stood at 72%. Also, in experiment [2], the percent of ribosomes bound to EF-G stood at 60%.

B1: Staphylococcus aureus ribosomal protein uL6 (natural protein, S. aureus NCTC 8325-4 (endogenous), UniProt Q2FW21 1-178, looked up)
chain: MSRVGKKIIDIPSDVTVTFDGNHVTVKGPKGELSRTLNERMTFKQEENTIEVVRPSDSKEDRTNHGTTRALLNNMVQGVSQGYVKVLELVGVGYRAQMQGKDLILNVGYSHPVEIKAEENITFSVEKNTVVKVEGISKEQVGALASNIRSVRPPEPYKGKGIRYQGEYVRRKEGKTGK
notes: Large-subunit ribosomal protein uL6 of S. aureus, encoded by rplF, as it stands in the native 70S ribosome; Present as a subunit of the 70S ribosome, not as an isolated protein; source: endogenous, in 70S ribosomes purified from S. aureus NCTC 8325-4 (sucrose cushions, zonal centrifugation)
Regarding B1, the binding result in experiment [3] is given as “binds”.
